For the experiment, the target named is T1, Wwp2 protein purified from transfected HEK293T cells (in vitro pull-down) (mouse, UniProt Q9DBH0 1-870).
T1 construct: Wwp2; plasmids were built from full-length cDNA NM_025830.3; source: HEK293T, transfected, purified (tagged protein magnetic purification kit)
The experiment is described as follows: pull-down; in vitro pull-down using His-tag (Dynabeads His-Tag Isolation and Pulldown); proteins purified from transfected HEK293T cells. The conditions noted are these: both partners purified.

T1 sequence (Q9DBH0 whole entry): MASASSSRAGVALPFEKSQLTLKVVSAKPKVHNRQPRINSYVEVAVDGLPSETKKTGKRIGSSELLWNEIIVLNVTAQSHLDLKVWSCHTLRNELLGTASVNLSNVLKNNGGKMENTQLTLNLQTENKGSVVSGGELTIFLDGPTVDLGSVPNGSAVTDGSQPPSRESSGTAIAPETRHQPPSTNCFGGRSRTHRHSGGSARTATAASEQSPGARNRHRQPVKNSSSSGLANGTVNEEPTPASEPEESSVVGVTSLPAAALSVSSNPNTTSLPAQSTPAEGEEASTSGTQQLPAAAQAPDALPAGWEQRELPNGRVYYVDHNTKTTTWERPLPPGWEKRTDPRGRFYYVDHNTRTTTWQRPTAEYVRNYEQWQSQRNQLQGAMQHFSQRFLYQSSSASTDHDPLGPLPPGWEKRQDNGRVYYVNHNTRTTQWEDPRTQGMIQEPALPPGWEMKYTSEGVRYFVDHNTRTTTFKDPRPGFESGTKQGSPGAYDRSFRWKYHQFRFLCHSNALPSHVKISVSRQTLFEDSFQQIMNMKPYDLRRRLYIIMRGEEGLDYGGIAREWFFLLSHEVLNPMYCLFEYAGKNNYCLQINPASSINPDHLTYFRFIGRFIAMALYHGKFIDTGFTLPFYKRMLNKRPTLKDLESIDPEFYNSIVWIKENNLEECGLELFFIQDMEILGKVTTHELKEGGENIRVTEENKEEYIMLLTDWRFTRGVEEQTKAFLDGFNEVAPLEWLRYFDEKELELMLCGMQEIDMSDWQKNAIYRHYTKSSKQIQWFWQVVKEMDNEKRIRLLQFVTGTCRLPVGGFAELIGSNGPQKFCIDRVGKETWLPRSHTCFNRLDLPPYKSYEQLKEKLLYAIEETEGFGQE

B1: Runx2 protein purified from transfected HEK293T cells (in vitro pull-down) (natural protein, mouse, UniProt Q08775-5 1-528, looked up)
chain: MASNSLFSAVTPCQQSFFWDPSTSRRFSPPSSSLQPGKMSDVSPVVAAQQQQQQQQQQQQQQQQQQQQQQQQQQQQQEAAAAAAAAAAAAAAAAAAVPRLRPPHDNRTMVEIIADHPAELVRTDSPNFLCSVLPSHWRCNKTLPVAFKVVALGEVPDGTVVTVMAGNDENYSAELRNASAVMKNQVARFNDLRFVGRSGRGKSFTLTITVFTNPPQVATYHRAIKVTVDGPREPRRHRQKLDDSKPSLFSDRLSDLGRIPHPSMRVGVPPQNPRPSLNSAPSPFNPQGQSQITDPRQAQSSPPWSYDQSYPSYLSQMTSPSIHSTTPLSSTRGTGLPAITDVPRRISDDDTATSDFCLWPSSLSKKSQAGASELGPFSDPRQFPSISSLTESRFSNPRMHYPATFTYTPPVTSGMSLGMSATTHYHTYLPPPYPGSSQSQSGPFQTSSTPYLYYGTSSASYQFPMVPGGDRSPSRMVPPCTTTSNGSTLLNPNLPNQNDGVDADGSHSSSPTVLNSSGRMDESVWRPY
notes: Runx2; plasmids were built from full-length cDNA NM_001146038.2; source: HEK293T, transfected, purified (tagged protein magnetic purification kit)
As for B1, the binding result is on record as “binds”.

Values taken from publication PMC6546747, “Wwp2 maintains cartilage homeostasis through regulation of Adamts5” (Nature Communications, 2019).
